B1: unnamed (parent)
chain 1: TIEALFQ
chain 2: not shown

Variants of: B1
Test: ITC
Settings: with partner chain of the complex shown

Row | Variant | Kd [µM]
1 | chain 1 T1A | 17
